59 molecules from patent US20180291082A1 (IMMATICS BIOTECHNOLOGIES, published 2018) can be followed below.

B1: KIDDIWNLEV (peptide)
peptide: KIDDIWNLEV
B2: GLTGVIMTI (peptide)
peptide: GLTGVIMTI
B3: VLITGLPLI (peptide)
peptide: VLITGLPLI
B4: YLLPSVVLL (peptide)
peptide: YLLPSVVLL
B5: YVSSGEMMV (peptide)
peptide: YVSSGEMMV
B6: ALAAELNQL (peptide)
peptide: ALAAELNQL
B7: GLMTIVTSL (peptide)
peptide: GLMTIVTSL
B8: KMMALVAEL (peptide)
peptide: KMMALVAEL
B9: RLASRPLLL (peptide)
peptide: RLASRPLLL
B10: KLHEIYIQA (peptide)
peptide: KLHEIYIQA
B11: YLPPTDPRMSV (peptide)
peptide: YLPPTDPRMSV
B12: SQTGFVVLV (peptide)
peptide: SQTGFVVLV
B13: SLQDTKITL (peptide)
peptide: SLQDTKITL
B14: FLNQIYTQL (peptide)
peptide: FLNQIYTQL
B15: KLLDEVTYL (peptide)
peptide: KLLDEVTYL
B16: GLPDFVKEL (peptide)
peptide: GLPDFVKEL
B17: ALFPERITV (peptide)
peptide: ALFPERITV
B18: RLWQIQHHL (peptide)
peptide: RLWQIQHHL
B19: KMILKMVQL (peptide)
peptide: KMILKMVQL
B20: YQDSWFQQL (peptide)
peptide: YQDSWFQQL
B21: RLFGLFLNNV (peptide)
peptide: RLFGLFLNNV
B22: VMLNSNVLL (peptide)
peptide: VMLNSNVLL
B23: ELMPRVYTL (peptide)
peptide: ELMPRVYTL
B24: LLMTSLTES (peptide)
peptide: LLMTSLTES
B25: KPAHYPLIAL (peptide)
peptide: KPAHYPLIAL
B26: LPALPQQLI (peptide)
peptide: LPALPQQLI
B27: APSGTRVVQVL (peptide)
peptide: APSGTRVVQVL
B28: HPIETLVDIF (peptide)
peptide: HPIETLVDIF
B29: LPDGSRVEL (peptide)
peptide: LPDGSRVEL
B30: SPLRGGSSL (peptide)
peptide: SPLRGGSSL
B31: MVPSAGQLALF (peptide)
peptide: MVPSAGQLALF
B32: VPSLQRLML (peptide)
peptide: VPSLQRLML
B33: RPAVGHSGL (peptide)
peptide: RPAVGHSGL
B34: NFLPPIIARF (peptide)
peptide: NFLPPIIARF
B35: IYGPKYIHPSF (peptide)
peptide: IYGPKYIHPSF
B36: TFQDKTLNF (peptide)
peptide: TFQDKTLNF
B37: IFINLSPEF (peptide)
peptide: IFINLSPEF
B38: KLYGMPTDFGF (peptide)
peptide: KLYGMPTDFGF
B39: TYISKTIAL (peptide)
peptide: TYISKTIAL
B40: PYASLASELF (peptide)
peptide: PYASLASELF
B41: EYNNIQHLF (peptide)
peptide: EYNNIQHLF
B42: KYLSIPTVF (peptide)
peptide: KYLSIPTVF
B43: KYLSIPAVF (peptide)
peptide: KYLSIPAVF
B44: KFLDSNIKF (peptide)
peptide: KFLDSNIKF
B45: MYAKEFDLL (peptide)
peptide: MYAKEFDLL
B46: SYIEKVRFL (peptide)
peptide: SYIEKVRFL
B47: LVLDYSKDYNHW (peptide)
peptide: LVLDYSKDYNHW
B48: YFEEAANFL (peptide)
peptide: YFEEAANFL
B49: VFLNQIYTQL (peptide)
peptide: VFLNQIYTQL
B50: KYLSLSNSF (peptide)
peptide: KYLSLSNSF
B51: VWAKILSAF (peptide)
peptide: VWAKILSAF
B52: SFDSNLLSF (peptide)
peptide: SFDSNLLSF
B53: VYGDGHYLTF (peptide)
peptide: VYGDGHYLTF
B54: KYLSIPAVFF (peptide)
peptide: KYLSIPAVFF
B55: SYTKVEARL (peptide)
peptide: SYTKVEARL
B56: VIAPIISNF (peptide)
peptide: VIAPIISNF
B57: TYLTGRQF (peptide)
peptide: TYLTGRQF
B58: RQYLAINQI (peptide)
peptide: RQYLAINQI
B59: AAMSRYEL (peptide)
peptide: AAMSRYEL

The target in the first test is T1, HLA-A*02:01 (human).
T1 construct: Peptide-receptive MHC monomer made by UV cleavage of a UV-sensitive peptide
In words: UV-ligand exchange, anti-b2m ELISA; exchange yield grade (+ >10%, ++ >20%, +++ >50, ++++ >75%). The gist of the method:
(§1)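 Peptide–MHC complexes formed by UV-ligand exchange, in which a UV-cleavable peptide is replaced by the test peptide. Exchange yield measured by ELISA detecting β2m of stabilised complexes captured on streptavidin, against refolded HLA-A*02:01/MLA-001 monomer standards (15-500 ng/ml); samples diluted 100-fold.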
A general note: An ELISA detects its analyte on a solid surface through an enzyme-linked reagent.
Regarding B1, the peptide exchange yield lay in the range of 50 to 75%. The same measure, in the same setting: the figure for B2 is over 75%. Turning to B3, the peptide exchange yield is over 75%. Same read-out and setting: in the case of B4 it was over 75%; in that of B5, 50 to 75%.

The molecule B6 had a peptide exchange yield of 50 to 75%. The molecule B7 displayed a peptide exchange yield of over 75%. Still for that read-out and setting: in the case of B8 it was over 75%. On the same count and under the same terms, the figure for B9 is 50 to 75%; for B10 it is over 75%.

Take B11: the peptide exchange yield was over 75%. On to B12, for which the peptide exchange yield is 20 to 50%. On the same count and under the same terms, the figure for B13 is 50 to 75%; for B14 it is over 75%; for B15 it is 50 to 75%.

B16 gave a peptide exchange yield of over 75%. Same read-out and setting: in the case of B17 it was over 75%; in that of B18, 50 to 75%; in that of B19, 10 to 20%. With B20, the peptide exchange yield was 50 to 75%. B21 registered a peptide exchange yield of over 75%. In turn, B22 had a peptide exchange yield of over 75%. In turn, B23 yielded a peptide exchange yield of 50 to 75%.

For the molecule B24, the peptide exchange yield lay in the range of 50 to 75%.

Another test has as its target T2, HLA-B*07:02 (human).
T2 construct: Peptide-receptive MHC monomer made by UV cleavage of a UV-sensitive peptide
The description is as above. The essentials: as §1
For the molecule B25, the peptide exchange yield lay within 50 to 75%.

In the case of B26, the peptide exchange yield lay within 50 to 75%. Still for that read-out and setting: in the case of B27 it was 20 to 50%. Still for that read-out and setting: the figure for B28 is 20 to 50%; for B29 it is 20 to 50%. On the same count and under the same terms, in the case of B30 it was 20 to 50%.

With B31, the peptide exchange yield fell in the range of 20 to 50%. On the same count and under the same terms, in the case of B32 it was 50 to 75%; in that of B33, 20 to 50%.

A further test addresses T3, HLA-A*24:02 (human).
T3 construct: Peptide-receptive MHC monomer made by UV cleavage of a UV-sensitive peptide
The test is described as above. The gist of the method:
as §1
B34 showed a peptide exchange yield of over 75%. B35 registered a peptide exchange yield of over 75%.

Consider B36, for which the peptide exchange yield is 50 to 75%.

Turning to B37, the peptide exchange yield is over 75%.

B38 showed a peptide exchange yield of 20 to 50%.

B39: the peptide exchange yield was in the range of 50 to 75%. Same read-out and setting: in the case of B40 it was over 75%. The same measure, in the same setting: in the case of B41 it was 50 to 75%.

Consider B42, for which the peptide exchange yield was over 75%. As for B43, the peptide exchange yield was over 75%. B44: the peptide exchange yield was in the range of 50 to 75%. Regarding B45, the peptide exchange yield was in the range of 50 to 75%. As for B46, the peptide exchange yield was 50 to 75%. The same measure, in the same setting: in the case of B47 it was 10 to 20%. On the same count and under the same terms, in the case of B48 it was 20 to 50%. The same measure, in the same setting: the figure for B49 is 20 to 50%; for B50 it is over 75%; for B51 it is 50 to 75%. As for B52, the peptide exchange yield fell in the range of 10 to 20%. With B53, the peptide exchange yield was in the range of 50 to 75%. B54 gave a peptide exchange yield of over 75%. The same measure, in the same setting: the figure for B55 is 50 to 75%; for B56 it is 50 to 75%; for B57 it is 20 to 50%. B58 returned a peptide exchange yield of 10 to 20%.

A further test deals with T4, human recombinant HLA-B*08:01 (human).
T4 construct: Expressed in E. coli and purified; Assay done by ImmunAware
The experiment in a line: pMHC dissociation at 37 C (b2m on heavy chain); mean half-life grade (+ >2 h, ++ >4 h, +++ >6 h, ++++ >10 h). Here is the method:
The peptide-MHC stability for HLA-B*08:01 peptides was performed by ImmunAware (Copenhagen, Denmark). The data were obtained using a proximity based, homogenous, real-time assay to measure the dissociation of peptides from HLA class I molecules. First human recombinant HLA-B*08:01 and b2m were expressed in E. coli and purified in a series of liquid chromatography based steps (Ferre et al., 2003; Ostergaard et al., 2001). Afterwards, the stability of a peptide-MHC complex (pMHC) can be determined by measuring the amount of b2m associated with the MHC heavy chain over time at 37° C. (Harndahl et al., 2012). The stability of each pMHC, expressed as the half life of b2m associated with the respective heavy chain, was calculated by fitting the data to a one-phase dissociation equation.
In the case of B59, the “mean half-life (T1/2) of peptide-MHC complex” value lay in the range of 4 to 6 h.
